Source: IntAct's records for PubMed 11923305

Columns and labels:
src_chick SRC [1] = target: src_chick SRC (UniProt P00523)
src_human SRC [2] = target: src_human SRC (UniProt P12931)
src_chick SRC [3] = target: src_chick SRC (UniProt P00523); remark: listed apart in the source
src_human SRC [4] = target: src_human SRC (UniProt P12931); remark: listed apart in the source

effect of a mutation on the interaction (src_chick SRC [1])	effect of a mutation on the interaction (src_human SRC [2])	effect of a mutation on the interaction (src_chick SRC [3])	effect of a mutation on the interaction (src_human SRC [4])	Substance
disrupting interaction	disrupting interaction			Receptor-type tyrosine-protein phosphatase alpha (Homo sapiens) (from UniProt P18433) S189A
		disrupting interaction	disrupting interaction	Receptor-type tyrosine-protein phosphatase alpha (Homo sapiens) (from UniProt P18433) S204A
